Assay results as given in patent publication US20220009989A1.

Experiments:
Biotinylated PCSK9 = Biotinylated PCSK9 (UniProt Q8NBP7); assay: PCSK9-LDL-R competitive ELISA (biotinylated PCSK9, coated rhLDL-R), Ki from IC50
[1] = target: solubilised human IR-A (human) (UniProt P06213); assay: SPA competition vs [125I-A14Y]-human insulin, solubilised hIR-A, 1.5% HSA, relative to human insulin
[2] = target: solubilised human IR-A (human) (UniProt P06213); assay: SPA competition vs [125I-A14Y]-human insulin, solubilised hIR-A, 0% HSA, relative to human insulin
[3] = target: PCSK9 (10 ug/mL; in-house production) (UniProt Q8NBP7); assay: cell-based or functional assay

Sequence of solubilised human IR-A (human) (P06213 other isoform, or with tags, fused parts or gaps limits assumed): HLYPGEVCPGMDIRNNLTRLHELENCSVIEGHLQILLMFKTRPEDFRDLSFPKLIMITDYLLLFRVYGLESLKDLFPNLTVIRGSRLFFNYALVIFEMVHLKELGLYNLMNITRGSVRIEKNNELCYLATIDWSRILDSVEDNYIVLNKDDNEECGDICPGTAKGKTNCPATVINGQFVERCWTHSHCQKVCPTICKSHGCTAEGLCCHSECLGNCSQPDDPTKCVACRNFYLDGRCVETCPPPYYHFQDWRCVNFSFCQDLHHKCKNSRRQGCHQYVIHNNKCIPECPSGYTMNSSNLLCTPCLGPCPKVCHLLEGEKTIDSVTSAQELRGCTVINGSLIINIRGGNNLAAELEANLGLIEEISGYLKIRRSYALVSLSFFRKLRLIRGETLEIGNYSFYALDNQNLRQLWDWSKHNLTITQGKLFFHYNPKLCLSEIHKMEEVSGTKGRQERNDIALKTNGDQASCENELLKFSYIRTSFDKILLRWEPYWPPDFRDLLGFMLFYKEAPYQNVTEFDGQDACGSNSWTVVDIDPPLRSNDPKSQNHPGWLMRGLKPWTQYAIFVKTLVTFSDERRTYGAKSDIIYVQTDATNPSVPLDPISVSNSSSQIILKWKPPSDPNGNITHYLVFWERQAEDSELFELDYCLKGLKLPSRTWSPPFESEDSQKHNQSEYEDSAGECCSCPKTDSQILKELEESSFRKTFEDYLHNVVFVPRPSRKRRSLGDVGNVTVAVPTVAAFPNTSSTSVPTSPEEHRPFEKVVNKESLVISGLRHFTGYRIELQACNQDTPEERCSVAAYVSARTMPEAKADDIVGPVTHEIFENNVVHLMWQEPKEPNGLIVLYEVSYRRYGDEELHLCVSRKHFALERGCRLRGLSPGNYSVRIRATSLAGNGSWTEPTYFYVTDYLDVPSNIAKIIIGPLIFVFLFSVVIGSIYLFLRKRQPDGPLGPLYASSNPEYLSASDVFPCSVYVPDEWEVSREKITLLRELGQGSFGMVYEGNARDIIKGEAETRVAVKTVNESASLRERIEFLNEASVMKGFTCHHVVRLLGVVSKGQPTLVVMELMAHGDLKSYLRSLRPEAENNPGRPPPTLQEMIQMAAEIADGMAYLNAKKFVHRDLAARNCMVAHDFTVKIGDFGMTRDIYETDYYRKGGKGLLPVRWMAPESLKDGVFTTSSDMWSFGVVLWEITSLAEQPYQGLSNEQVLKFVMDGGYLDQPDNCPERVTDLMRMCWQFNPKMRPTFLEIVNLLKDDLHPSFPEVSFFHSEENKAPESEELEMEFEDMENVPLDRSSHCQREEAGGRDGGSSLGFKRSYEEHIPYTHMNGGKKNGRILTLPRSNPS

Substance | Ki (Biotinylated PCSK9) [nM] | hIR-A binding affinity (% rel to HI) [1] | hIR-A binding affinity (% rel to HI) [2] | LDL uptake EC50 (nM) in HepG2 cells [3] [nM]
EGF(A)(301L, 309R, 312E, 321E)-[GAQP]6-Insulin(A14E, B29K(octadecanedioyl-gGlu-OEG), desB30) | 2.07 | – | – | –
EGF(A)(301L, 309R, 312E, 321E)-[GAQP]19-Insulin(B3E, B29K(eicosanedioyl-gGlu-2×OEG), desB30) | 1.86 | 0.29 % rel to HI | 4.15 % rel to HI | –
EGF(A)(301L, 309R, 312E, 321E)-[GAQP]19-Insulin(A14E, B29K(eicosanedioyl-gGlu-2×OEG), desB30) | – | 0.14 % rel to HI | 2.89 % rel to HI | 126
EGF(A)(301L, 309R, 312E, 321E)-[GAQP]6-Insulin(A14E, B29K(eicosanedioyl-gGlu-2×OEG), desB30 | 1.75 | – | – | –
EGF(A)(301L, 309R, 312E, 321E)-[GAQP]6-Insulin(A14E, B29K(octadecanedioyl-gGlu-2×OEG), desB30) | 1.92 | – | – | –
EGF(A)(301L, 309R, 312E, 321E, 328K(hexadecanedioyl-gGlu-2×OEG), 330K(hexadecanedioyl-gGlu-2×OEG)) (peptide; modification not given) | – | – | – | 152
EGF(A)(301L, 309R, 312E, 321E, 328K(hexadecanedioyl-gGlu-2×OEG), 330K(hexadecanedioyl-gGlu-2×OEG)) (peptide; modification not given; biotinylated (sites not stated)) | 1.9 | – | – | –
EGF(A)(301L, 309R, 312E, 321E)-[GAQP]19-Insulin(A14E, B29K(octadecanedioyl-gGlu-2×OEG), desB30) | 2.12 | 0.14 % rel to HI | 2.99 % rel to HI | 123
